# In publication PMC2673435:
# B1: dT30 (ssDNA)
# DNA: TTTTTTTTTTTTTTTTTTTTTTTTTTTTTT
# Assays:
# Assay in all cases: fluorescence polarization
# RPA•2(WF) = RPA•2(WF) (Saccharomyces cerevisiae, UniProt P22336;P26754;P26755 1-621;1-273;1-122, W101A;F143A)
# RPA•2(MM1) = RPA•2(MM1) (Saccharomyces cerevisiae, UniProt P22336;P26754;P26755 1-621;1-273;1-122, D80A;T82A;I96L;E97A;R99A;K100A;K146A;K147A)
# RPA•2(MM2) = RPA•2(MM2) (Saccharomyces cerevisiae, UniProt P22336;P26754;P26755 1-621;1-273;1-122, D80A;T82A;E103A;D104A;D158A;E162A)
# RPA•2(MM2), sequence (P22336 whole entry, chain 1 of 3): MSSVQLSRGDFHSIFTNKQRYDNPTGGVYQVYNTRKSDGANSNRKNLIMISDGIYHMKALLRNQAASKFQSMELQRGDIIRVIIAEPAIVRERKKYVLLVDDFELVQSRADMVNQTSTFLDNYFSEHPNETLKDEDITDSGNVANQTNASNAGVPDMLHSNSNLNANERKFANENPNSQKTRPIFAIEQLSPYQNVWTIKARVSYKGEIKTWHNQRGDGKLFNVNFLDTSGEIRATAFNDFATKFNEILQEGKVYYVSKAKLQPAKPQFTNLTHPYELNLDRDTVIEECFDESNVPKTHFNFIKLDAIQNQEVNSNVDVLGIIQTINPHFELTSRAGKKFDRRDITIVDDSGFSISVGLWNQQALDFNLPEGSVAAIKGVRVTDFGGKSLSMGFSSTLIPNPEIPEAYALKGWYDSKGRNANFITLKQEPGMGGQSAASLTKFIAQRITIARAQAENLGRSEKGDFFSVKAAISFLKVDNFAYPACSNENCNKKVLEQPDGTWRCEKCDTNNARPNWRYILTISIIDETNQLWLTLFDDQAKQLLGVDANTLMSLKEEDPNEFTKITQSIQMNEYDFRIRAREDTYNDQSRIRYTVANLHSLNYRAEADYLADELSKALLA
# RPA•2(MM2), sequence (P26754 whole entry D80A/T82A/E103A/D104A/D158A/E162A, chain 2 of 3): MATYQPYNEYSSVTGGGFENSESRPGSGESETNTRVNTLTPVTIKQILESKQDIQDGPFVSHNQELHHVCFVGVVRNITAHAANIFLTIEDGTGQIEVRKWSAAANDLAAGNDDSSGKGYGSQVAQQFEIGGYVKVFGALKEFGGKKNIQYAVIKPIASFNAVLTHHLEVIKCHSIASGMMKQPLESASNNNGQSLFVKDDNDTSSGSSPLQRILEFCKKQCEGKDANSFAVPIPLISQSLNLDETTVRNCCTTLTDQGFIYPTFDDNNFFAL
# RPA•2(MM2), sequence (P26755 whole entry, chain 3 of 3): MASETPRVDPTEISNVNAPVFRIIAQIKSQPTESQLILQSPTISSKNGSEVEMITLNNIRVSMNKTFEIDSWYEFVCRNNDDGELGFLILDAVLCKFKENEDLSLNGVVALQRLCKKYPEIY
# RPA•2(ERK) = RPA•2(ERK) (Saccharomyces cerevisiae, UniProt P22336;P26754;P26755 1-621;1-273;1-122, I96L;E97A;R99A;K100A)
# RPA•2(ERK), sequence (P22336 whole entry, chain 1 of 3): as the sequence (P22336 whole entry, chain 1 of 3) above
# RPA•2(ERK), sequence (P26754 whole entry I96L/E97A/R99A/K100A, chain 2 of 3): as the sequence (P26754 whole entry D80A/T82A/E103A/D104A/D158A/E162A, chain 2 of 3) above, with A80D, A82T, I96L, E97A, R99A, K100A, A103E, A104D, A158D, A162E counted along it
# RPA•2(ERK), sequence (P26755 whole entry, chain 3 of 3): as the sequence (P26755 whole entry, chain 3 of 3) above
# RPA•2(DT) = RPA•2(DT) (Saccharomyces cerevisiae, UniProt P22336;P26754;P26755 1-621;1-273;1-122, D80A;T82A)
# RPA•2(DT), sequence (P22336 whole entry, chain 1 of 3): as the sequence (P22336 whole entry, chain 1 of 3) above
# RPA•2(DT), sequence (P26754 whole entry D80A/T82A, chain 2 of 3): as the sequence (P26754 whole entry D80A/T82A/E103A/D104A/D158A/E162A, chain 2 of 3) above, with A103E, A104D, A158D, A162E counted along it
# RPA•2(DT), sequence (P26755 whole entry, chain 3 of 3): as the sequence (P26755 whole entry, chain 3 of 3) above
# RPA•2(WF), sequence (P22336 whole entry, chain 1 of 3): as the sequence (P22336 whole entry, chain 1 of 3) above
# RPA•2(WF), sequence (P26754 whole entry W101A/F143A, chain 2 of 3): as the sequence (P26754 whole entry D80A/T82A/E103A/D104A/D158A/E162A, chain 2 of 3) above, with A80D, A82T, W101A, A103E, A104D, F143A, A158D, A162E counted along it
# RPA•2(WF), sequence (P26755 whole entry, chain 3 of 3): as the sequence (P26755 whole entry, chain 3 of 3) above
# RPA•2(MM1), sequence (P22336 whole entry, chain 1 of 3): as the sequence (P22336 whole entry, chain 1 of 3) above
# RPA•2(MM1), sequence (P26754 whole entry D80A/T82A/I96L/E97A/R99A/K100A/K146A/K147A, chain 2 of 3): as the sequence (P26754 whole entry D80A/T82A/E103A/D104A/D158A/E162A, chain 2 of 3) above, with I96L, E97A, R99A, K100A, A103E, A104D, K146A, K147A, A158D, A162E counted along it
# RPA•2(MM1), sequence (P26755 whole entry, chain 3 of 3): as the sequence (P26755 whole entry, chain 3 of 3) above
binder,measurement,setting,value
B1,Ka,RPA•2(WF),3.85e+07 M⁻¹
same,binding result,RPA•2(MM1),binds
same,binding result,RPA•2(MM2),binds
same,binding result,RPA•2(ERK),binds
same,binding result,RPA•2(DT),binds
